Measured values from patent US20080313769A9, “EPSP synthase domains conferring glyphosate resistance” (Athenix Corporation, priority 2006, published 2008).

B1: grg20: EPSP synthase of Sulfolobus solfataricus (SEQ ID NO:12), expressed from plasmid pAX716 (protein, listed as Solfolobus solfataricus)
chain: MIVKIYPSKISGIIKAPQSKSLAIRLIFLSLFTRVYLHNLVLSEDVIDAIKSVRALGVKVKNNSEFIPPEKLEIKERFIKLKGSATTLRMLIPILAAIGGEVTIDADESLRRRPLNRIVQALSNYGISFSSYSLPLTITGKLSSNEIKISGDESSQYISGLIYALHILNGGSIEILPPISSKSYILLTIDLFKRFGSDVKFYGSKIHVNPNNLVEFQGEVAGDYGLASFYALSALVSGGGITITNLWEPKEYFGDHSIVKIFSEMGASSEYKDGRWFVKAKDKYSPIKIDIDDAPDLAMTIAGLSAIAEGTSEIIGIERLRIKESDRIESIRKILGLYGVGSEVKYNSILIFGINKGMLNSPVTDCLNDHRVAMMSSALALVNGGVITSAECVGKSNPNYWQDLLSLNAKISIE
B2: grg22: EPSP synthase of Methanopyrus kandleri (SEQ ID NO:10), synthetic gene in plasmid pAX724 (protein, listed as Methanopyrus kanleri)
chain: MKRVELEGIPEVRGTVCPPPSKSGSHRALIAASLCDGSTELWNVLDAEDVRATLRLCRMLGAEVDVDGEERLEATVSGFGDSPRAPEDVVDCGNSGTTLRLGCGLAALVEGTTILTGDDSLRSRPVGDLLAALRSLGVDARGRVVRGEEYPPVVISGRPLRERVAVYGDVSSQFVSALLFLGAGLGALRVDVVGDLRSRPYVDMTVETLERFGVSVVREGSSFEVEGRPRSPGKLRVENDWSSAGYFVALGAIGGEMRIEGVDLDSSHPDRRIVEITREMGAEVRRIDGGIVVRSTGRLEGVEVDLSDSPDLVPTVAAMACFAEGVTRIENVGHLRYKEVDRLRALAAELPKFGVEVREGKDWLEIVGGEPVGARVDSRGDHRMAMALAVVGAFARGKTVVERADAVSISYPRFWEDLASVGVPVHSV
B3: grg21: EPSP synthase of Fusobacterium nucleatum (SEQ ID NO:8), synthetic gene in plasmid pAX723 (protein, listed as Fusobacterium nucleatum)
chain: MRNMNKKIIKADKLVGEVTPPPSKSVLHRYIIASSLAKGISKIENISYSDDIIATIEAMKKLGANIEKKDNYLLIDGSKTFDKEYLNNDSEIDCNESGSTLRFLFPLSIVKENKILFKGKGKLFKRPLSPYFENFDKYQIKCSSINENKILLDGELKSGVYEIDGNISSQFITGLLFSLPLLNGNSKIIIKGKLESSSYIDITLDCLNKFGINIINNSYKEFIIEGNQTYKSGNYQVEADYSQVAFFLVANSIGSNIKINGLNVNSLQGDKKIIDFISEIDNWTKNEKLILDGSETPDIIPILSLKACISKKEIEIVNIARLRIKESDRLSATVQELSKLGFDLIEKEDSILINSRKNFNEISNNSPISLSSHSDHRIAMTVAIASTCYEGEIILDNLDCVKKSYPNFWEVFLSLGGKIYEYLG
B4: GRG23: EPSP synthase (SEQ ID NO:14) isolated from a bacterial strain exhibiting strong glyphosate resistance (protein, listed as Arthrobacter globiformis)
chain: MALERGQHGRSRRLFGASLERITMETDRLVIPGSKSITNRALLLAAAAKGTSVLVRPLVSADTSAFKTAIQALGANVSADGDNWVVEGLGQAPHLDADIWCEDAGTVARFLPPFVAAGQGKFTVDGSEQLRRRPLRPLVDGIRHLGARVSSEQLPLTIEASGLAGGEYEIEAHQSSQFASGLIMAAPYARQGLRVRIPNPVSQPYLTMTLRMMRDFGLETSTDGATVSVPPGRYTARRYEIEPDASTASYFAAASAVSGRSFEFQGLGTDSIQGDTSFFNVLGRLGAEVHWAPNSVTISGPERLNGDIEVDMGEISDTFMTLAAIAPLADGPITITNIGHARLKESDRISAMETNLRTLGVQTDVGHDWMRIYPSTPHGGRVNCHRDHRIAMAFSILGLRVDGITLDDPQCVGKTFPGFFDYLGRLFPEKALTLPG
modifications: VARIANT (0)...(0) Strain ATX21308
B5: GRG1: EPSP synthase (SEQ ID NO:2) that confers glyphosate resistance, from U.S. application 10/739,610 (protein, listed as Enterobacteriaceae sp.)
chain: VKVTIQPGDLTGIIQSPASKSSMQRACAAALVAKGISEIINPGHSNDDKAARDIVSRLGARLEDQPDGSLQITSEGVKPVAPFIDCGESGLSIRMFTPIVALSKEEVTIKGSGSLVTRPMDFFDEILPHLGVKVKSNQGKLPLVIQGPLKPADVTVDGSLSSQFLTGLLLAYAAADASDVAIKVTNLKSRPYIDLTLDVMKRFGLKTPENRNYEEFYFKAGNVYDETKMQRYTVEGDWSGGAFLLVAGAIAGPITVRGLDIASTQADKAIVQALMSANAGIAIDAKEIKLHPADLNAFEFDATDCPDLFPPLVALASYCKGETKIKGVSRLAHKESDRGLTLQDEFGKMGVEIHLEGDLMRVIGGKGVKGAEVSSRHDHRIAMACAVAALKAVGETTIEHAEAVNKSYPDFYSDLKQLGGVVSLNHQFNFS
B6: grg10: EPSP synthase of Clostridium acetobutylicum (SEQ ID NO:6), expressed from plasmid pAX714 (protein, listed as Clostridium acetobutylicum)
chain: MNCVKINPCCLKGDIKIPPSKSLGHRAIICAALSEEESTIENISYSKDIKATCIGMSKLGALIIEDAKDNSTLKIKKQKLVSKEKVYIDCSESGSTVRFLIPISLIEERNVVFDGQGKLSYRPLDSYFNIFDEKEIAYSHPEGKVLPLQIKGRLKAGMFNLPGNISSQFISGLMFSLPFLEGDSIINITTNLESVGYVDMTIDMLKKFGIEIENKAYKSFFIKGNQKCKGTKYKVEGDFSQAAFWLSAGILNGNINCKDLNISSLQGDKVILDILKKMGGAIDEKSFSSKKSHTHGIVIDASQCPDLVPILSVVAALSEGTTKIVNAARLRIKESDRLKAMATELNKLGAEVVELEDGLLIEGKEKLKGGEVESWNDHRIAMALGIAALRCEESVTINGSECVSKSYPQFWSDLKQLGGDVHEWSLGE

Assays:
[1] = tested on: E. coli cells; assay: Growth of E. coli expressing EPSP synthase genes on M63 agar medium containing glyphosate; type: cell-based; conditions: for Glyphosate resistance conferred by expression in E. coli (summary in words): M63 agar, various concentrations of glyphosate, vs pAX701 glyphosate-sensitive control
Excerpt: The coding sequence of the Clostridium acetobutylicum EPSP synthase gene (SEQ ID NO:5), identified in Genbank accession number NC—003030, was PCR amplified using the following primers: […] (upper) (SEQ ID NO:42) and […] (lower) (SEQ ID NO:43). The upper primer changed the start codon to ATG from TTG, as it naturally occurs. The resultant 1.3 kb product was digested with BamH I and Asc I, and ligated into the same sites of a modified version of pUC 18 and transformed into the E. coli strain DH5a. A positive clone containing the EPSP synthase insert was identified by restriction digest and named pAX714. A pAX714 colony was struck onto minimal M63 media containing IPTG, carbenicillin and 0, 20, 50 or 100 mM glyphosate, and the plates were incubated at 37° C. […] The encoded EPSP synthase (SEQ ID NO:6) was named grg10.
(§1) Plasmids pAX714 and pAX716, containing grg10 and grg20, respectively, were transformed into E. coli cells and streaked onto M63 agar medium containing IPTG, carbenicillin, and various concentrations of glyphosate. Colonies of pAX701 (containing the wild-type E. coli aroA gene) were used as glyphosate-sensitive controls.
as §1, with “pAX723” for “pAX714”, “pAX72^4,” for “pAX716,”, “grg21” for “grg10”, “grg22,” for “grg20,”

[2] = tested on: bacteria and plants; conditions: statement referring to earlier patent applications; cited from earlier work

| Molecule | Glyphosate resistance conferred by expression in E. coli (summary in words) [1] | Glyphosate resistance or tolerance conferred on organisms (in words) [2] | other results |
| --- | --- | --- | --- |
| B1 | confers resistance to high levels of glyphosate | – | – |
| B2 | confers resistance to high levels of glyphosate | – | – |
| B3 | confers resistance to high levels of glyphosate | – | – |
| B4 | – | confers glyphosate tolerance | – |
| B5 | – | confers glyphosate resistance upon both bacteria and plants | – |
| B6 | confers resistance to high levels of glyphosate | – | Glyphosate concentration to which the encoded EPSP synthase is resistant ([1]; E. coli DH5a on minimal M63 media, 37° C.): at least 100 mM; Growth of pAX714-containing cells on glyphosate ([1]; minimal M63 media with IPTG, carbenicillin and 0, 20, 50 or 100 mM glyphosate, 37° C.): grew very well on all concentrations of glyphosate tested |
